From the NTF2 design screens of Basanta et al. (2020)

experiment: protease stability score; higher = more stable; yeast display proteolysis, trypsin and chymotrypsin;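 also: log10 excess protease needed over predicted unfolded state with 0 meaning unfolded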

Sequence | protease stability score
DEKQNNHFKDLMETNDWTQIAKQADENAKAKYGDKTVHGRENITHNNRRIKNRVDEMRIRNLTLEPNRIVQNFVVRVNGQDAQAVMTLEFENGRVKSVKLQARDTRVEEVLRKMMQ | 0.465
DEEAQKQAEHLIRNLEQGNEDQIERLADPNARFQYGNKEINGREEMSTWVRRYKKQARLEIKSVSADAQGDKITVDVHFVIDINGRPSTMRVNVVMSIDNGSINHMVFEIDEEQEKELNK | 0.202
DEHNHKVAEEIFKALTTGDPDKVRENFDKDASLVIGDKTVNGRKQIKEEVQKRKDEMRIDFKNIDIQVSDGKVRVNVRMQVNINGQPVDFTLDAEFDIHNGKAKQVRFEFDEKDKRTLEQ | -0.059
DEDKNNRDMQDMIRAVITNDEKRVQELMDPNASVTVGDHTFKGTEAVTHLITDLRNHIDHVELNSVSVHNGKAKADMVFTVNGQHVKIEMNAQAHNGKVTQFDVSARSEEEHKKYKQ | -0.542
DEEELSHFLDVVRTGDFHEMAKMVDPNARINVGDKRVHGREDAETLIKEIQKRADHVEVDSYSIEGDKVRVLMRVNVNGVEVVFILVVQLNNGRIVHRQVDVTNEELEKQVRHANS | 0.659
DHDAAHQFKKMLDALRTNDEEHARRMADPNAKFQIGDKTYKGMDTFIRQLVREAREIKIHIDDIKVHDKGDKAVLNVNVKFSKNGEPDSRVLNFEFRAHNGHLKEIVVRDDK | 0.757
DDDAIKRFHEQVDNEQHNNEEEQEKNVDPNATVNVGDKTYHGREKWREVVKRENEEMRVKYQHVTFRRHPGRVIVRFRIVNDHNGKPTETDVNANYQMHNGRIRQVNRRTDG | 0.162
DEEKNEEWAEQAQHLLETGDPDKFRTMIDENAKADVGDKRLHGRETIVEEIDRMTERVDHIQITRVSAKGNRVRVKMVLRVNGVNLDVVMVFNYHNGRIKSVQVEYRNREQQKRFES | 0.388
EDEVRQRAEEFLKAWERGDPETLMRMADPNARFKIGDKEVHGREDYHREHKRQRDQMRYRLHSYEVSASGDKVHVDVSYNMNNNGQPNNSRQTFSARVDNGKIKELNVQSTG | -0.061
DERVNREWEKFIHAFESGNESQLKRLMDKDVRLTVGDKQIEGREEMARQLKKRRDQSRVSINIESVQHDGDKVHIQFHVTNNKNGRPEKRTSVVTVEAHNGKLKEVNIDDKP | 0.803
DDEKAKEMMKVWKSGDEEDLVRLADENVSVVVGDHRVRGREEFKKWLHRLSEQVDRWKVDSVHAHNGRIQIDAVYVVNGQEFRLTIHVTMRNGRIKTVRAQVTTEDDERKLKKVVS | 0.63
DERKKVEDVARHWVEAFKEGDKDRLTSLMDENVTVKVGDKQVHGSEELLEDMTNKIKQHDHVDAKILSVTFHGDEAEVDVEVRLNHNGKNRHDRYVMVMRVHNGTLRLKKLTQK | 1.24
DTHNFKKYMELLKALETGDERTARKMADPNAEFVIGDKEWHGMEEFAQTRVEQFKEQSIEIKILDYKDKNGQVHIRYRIRVNRNGKPDEKEVVVRIENHNGRIHHVEYRDTG | 0.09
DEENEDIFRKYLEDLKKGDPKKLKEQFDKDAEVKVGDDVLHGRRSIARTLHEERKEMRVEIEDVKVRAHNGQLEVRFQQTVDHNGRPKTVRARMEVKFHNGRIKHLSVDERE | -0.331
DEDAIRVANEILKAIKEGDPHQIEEQFDKHARATYGDKTIEGSKNIMNFQKQMMDRASIKIDSVRLKNQGDHANLDYRAKVTHNGTPNDRRFTADVTVRNGKMRVFDVESRP | -0.365
DDEDWHRLAERLFTALRTGDWKELLKMMDPNVNINIGDQTYHGRKDLKNWAQHMREEVDHVEIKSIRIQGNKIVLDITYVTNGQRQNVIFVFSIHNGKVKHVHAKTK | 1.14
DDELVRSAEHLFKVWQDGNPDEAKRYMDPNAELKVGDKTVHGRDDANRWVEQLQRELRYHFTINNVERQGNTVVIKATATEHHNGKPKTYSVDIEIEAQNGKVKLVIIRING | -0.09
DTDAVKNFKEDLHAVRSGDPDRLLKMFDPNAKLQIGDKEVTGMDQYAKEVHNTRQEIRMSYELRDYKVDGDKIEADIRVQKDVNGRPYRDKVKVDIKVNNGRIKKARYQVDEDKEKQLQS | -0.126
DEHAIKLLKKIYEAWEEGDPDEARENADPNARYIIGDKTLHGMENIVKEWQRRYDESRIDYKHIDVQDDNGRANADVRYVVQHNGRPERKTMTVIVEVHNGRVTQIHFQDTQ | -0.01
DETKDTEAAERYLENFKTGDPKKLANQFDKNAKVVVGDNEIHGREELQRNNESFVKRVDHIDLQTVDMRGDKFRYQVVIKINGNSVIVNYSIVMHNGKFERNHVDPKDMDRLKQ | 0.363
DEKEMQEFAKEVVKMLQTGDERKNERNVDKDVRVKIGEKVLHGREDNSKWIQEWRDRVDHIRIDHVHVHGEKVIVTVTAVVNGVEVEFQMVMEVHNGRAENVQVKYRNPDELRRFKS | -0.263
DNEKVARNAADKLMTAINTGDPDQFVKLFDENAHVDVGDKTWRGRDKLKEWARKIVEQVDHLRARVTHMDVDGDKASVVFVVTLNKNGKEHSEQHEATAEVSGEQAVFKSLRHK | 1.38
DEEDQRRVAHDAADALRTGDPDRMVQLADPNVTLDIGDKRFTGDEEFHKAMKEISRQVDHMKIDSYTVRNGRASISAVLEVNGKRKRVFFVFVIHNGRIKELHIKTE | 1.59
DERHEAEKFAQHWMEVWKKGNHTEISKLIDENARVEVGDQKYHGRSQVKTRARQEVERADHVDYTIRSVKVTGNRIDINAQQVFRVNGTEDDQTRKIVLRRQGDKVVVQSIQAG | -0.159
DEHHAAKRLMDNLLQAMRTGDTDTLKKLADPNVRIDVGDKTYHGREQFLQWMKELVKHVDSVHVDIKRFTVDGNNATIDAEARRDVNGNDHSEKVSVVAEVSGDKMHLKEIQYR | 1.04

Sequence | protease stability score
SEEQVEKLVKVMFRAVQNGNKDEVKKYGKSSGQFVFGSDRVEGVDQYVKKLKEVHDRGVQFEFKKFQVKDDTVTMETEVHYGNKTFRVTAQAKYDGGTLDRARVEISEEAKEAYKQG | 0.368
DEEVAKKMMEAWMKALQNGNDEQMKKLYDPTVRWEDGNTEKQGLEVVVKLVQTVKKKGIEFQVRKAKVKGNQVEVHYDMKVGDDTVTFTVQFRAQGGRIQEVRVEISEEARKAVKKG | 1.22
EEESHQVAENIARILQTNDPRRLAELMDENARVRVGDTQLSGREDIEKQMDKEMKEIRVEIKNYEIDAKGEKIDIDVDQVFVHNGKPDRQRVKYDFDLRNGQIKRASVSVHK | -0.188
DEEKRAKTIVKKIHKAWTHNDERTFKNMADPNAEVRVGDQTYHGMEQWQREQAKRAQNYDHVDFDVKNVEVKGEKVDILMEFQMNDNGKNDTERRVVVVVDVNGQDRIRSVHKG | -0.256
DDRDLETMVRLWRDNDSKRLKQNVDPNARIRYGNFEVHGREQVQKWIKLFRDRVDHNDIKRYQTTPGRLVMQLSATFNGVKVKFTMIVEFHNGNIRLIQINFTDEENMKHLVREVE | 1.55
DDEKQHTIAKQLVEVLQQNDPDQQRDMVDENANIDIGDKTYQGQEDARKAMDELRRQIDHLTVTSFNVHNGRVEIRARARVNGTDVTVHIEAQLHNGRVKKMKIKYG | -0.196
DEKDLEELAKDVIEAYQDGDEQRLRNNFDKDARWHIGDKTFHGRERNVRHLVEEAKRVDHIHVTTMEVQGNTVRMVLRMNHNGKSDHVDIQITFENGRAQSVTVTKP | 0.369
DEDAMKRFKDLLRAQETGDEHRIRELVDPNAQFVIGDRKITGREEYVRIFREERENMHIDLEVKSVSVKGNKLTIHLTFKVDHNGKPMRASAQIQVKIRNGRIQEVQYDFDEDQLRKLKR | 0.32
EDHTLREFQKNWQHNNPDELEKMMDPNVKIVIGDKKYHGKEEAKRINKQIVDQADHIDIRRVEVSGNKLEIRMVLNVNGNTRELVVIFKLHNGRIKHVEFKFTDERQKNFQEEMLQ | 1.08
DEETKDWVDRFFQALHKNNEEELEQLMDPNAHINIGDKVWHGREEFRREHERQAKHWRFTQDITRIDVKGNKARLRVRFRMNYDGKPKDSKARIEIIIHNGKLKEYRQKDDG | 0.351
DHEAREIVEEYLKAIERNNPKKAQELVDPNVHFHYGDKRLDGREDLNEKIHRETKHQRVDIKSVSIDVQGDKVDVKVDVVDVHNGQPERYTFEVTYTFKNGQIQNADQKESG | 1.02
DEEDSKQMKQVLEAIRRGDEDHVRQQFDPNARIRVGDKEYHGMEEYASDLRSKRSKLDHKINLKTMSASNGRIDFVVQVQFTIDGQPVTDEVRATAVVHNGKIVSLSNEVDEERISEVEK | -0.705
DEEHARTFMEEWQKAVQKGDHKRAQEIYKPNVEWVAGDKQTQGTDVVREMLEKAQKMGVEFQVRRAEVEGNKVRFQYDVRHGNETVTFHVEVTVQGGKIDRVQVKFDEKAQKVQKEG | 1.07
DEHEAKKMSEMFKNLATGNPDTAKRQFDKDASVQIGDKVVHGREHLSRTLKRRRDQIRVVVEDVKVTVNGDKAEIQVIFSWEHNGEPRRSVYFATVHWHNGNVKKVTVTEQS | -0.121
DDERRKKQVDTFNKAFEKGDESQIRKLFDKDAKARVGDKHYHGKEQVARMVKTFVHQVDHMQFKSVRVQGDKVRADVTVKVNGNTARFTIEIRIHNGKIQHASIDPRNMEKMKR | -0.073
DKDLIERDKQWWTAVRHNNPDRLSENVDENASVRIGDKEVHGRKDISRLIKHLRDTMHESYKIERVNKEEGRANIQASATRDHNGRPRTARVQVIVEAHNGRIKRIQVQFNS | -0.336
DEQAKEVAEHWWEAVKKNDPTQAKENADKDVRARVGDQEIHGREDLATWLDQQKREMRIDLQIDSVSVSNGTLDIKAKMQVEDNGTPEHNTVEASMVVHNGRVKQFHIRVTK | 0.96
DEEDQKHAESFFRNLINNNPEKLKEMADPNAEFEVGDKTLNGTEDLSKWAQKLKDQARMSIQSLTIRVENGRLSATMTFEVEHNGQPDRMKITAHASITNGKITHFMLRLDPKQYKSWVG | 0.493
DEENRHAAEQYLTALRTGDEEQLKKNADPNVRVQVGDKQWTGMERYAHDQVRQLKEIHIEIKVDDIKVSNGEVDMKAERNSNHNGKPSRNRASLTIVVHNGKIQEIHWQEDS | -0.47
DEEEMEKVLQVQSTGNPDRYRKLADKDVRLVVGDTEVQGKEKVVKKVHDFHKQIDHQDYESMSAEGNRIDVLLRNVVNGQELVLRVVVRVHNGRIKEVELRARSEEEQSRFDHAWK | 0.093
DEESREQQVHHMMEAIKTGDEDRARTLMDKDASLQVGDKVFQGRKEAAKAVSEIVRRVDRFRVDSVTVSGNQVDAKVQFEVNGRNMQATIRIQMHNGRIQHLVIEFRDPNQYREVKK | 1.05
DDDTTAKKAIDDFIENFEHGDPKEADKQADENVRVEYGDKEVDGRHQMAHWLVKLVERVDHVRWHIHEVRMDNGKINVIFENKQKFDGRTEDREFHMTADTRDGRIQLTSVHEK | 0.491
DERELDNASRVATNIATGDEEKVVKLADENAKLNVGDNEVHGTEQATREVKKTQNDLRRNVESFEIDKNGNHARLEATVYQTVNGKPVRYKMSAEVHVHNGRVTKVDVQMDHRLLQRNKK | -0.037
DEKIVQAMKRYMDARQKGDPEDFNNLVDPNVRLNVGDKRVHGRERISEQIQREQRKMRIEIKHVEFRDQGEKVQLRVKYVVEINGRPRHASQRMEASLDDGKIKSIEIRVDEEVKKIEKV | -0.088
EEDLLEVMERLYQALRENDPKKAMENVDPNARFKVGNKEYRGREQQSKEDTKKRDKMRVDMRIESMEIHGETVHIDATVVNQVNGQPYRQKVIIRARLHNGQIQELEFQLDPSVQEKVRQ | 0.538
